# The DeepSol protein solubility set
# Experiment: soluble on expression in E. coli; label from the status in PepcDB or PDB records
row,Sequence,soluble on expression in E. coli
1,MSSECDGGSKAVMNGLAPGSNGQDKDMDPTKICTGKGAVTLRASSSYRETPSSSPASPQETRQHESKPGLEPEPSSADEWRLSSSADANGNAQPSSLAAKGYRSVHPNLPSDKSQDSSPLLNEVSSSLIGTDSQAFPSVSKPSSAYPSTTIVNPTIVLLQHNREQQKRLSSLSDPVSERRVGEQDSAPTQEKPTSPGKAIEKRAKDDSRRVVKSTQDLSDVSMDEVGIPLRNTERSKDWYKTMFKQIHKLNRDDDSDLYSPRYSFSEDTKSPLSVPRSKSEMSYIDGEKVVKRSATLPLPARSSSLKSSSERNDWEPPDKKVDTRKYRAEPKSIYEYQPGKSSVLTNEKMSRDISPEEIDLKNEPWYKFFSELEFGKPTNLDKDLSLCQTELEADLEKMETLNKAPSANVPQSSAISPTPEISSETPGYIYSSNFHAVKRESDGAPGDLTSLENERQIYKSVLEGGDIPLQGLSGLKRPSSSASTKVHSRTFNTSNALGPVCKHKKPLSAAKACISEILPSKFKPRLSAPSALLQEQKSILLPSEKAQSCENLCVSGSLNDSKRGLPLQVGGSIENLLMRSRRDYDSKSSSTMSLQEYSTSGRRPCPLSRKAGMQFTMLYRDMHQINRSGLFLGSISSSSSVRDLASHFEKSSLALSRGELGPSQEGSEHIPKHTVSSRITAFEQLIQRSRSMPSLDLSGRLSKSPTPVLSRGSLTSARSAESLLESTKLHPKEMDGMNSSGVYASPTCSNMAHHALSFRGLVPSEPLSTCSDDVDRCSNISTDSREGSGGSVHGDFPKHRLNKCKGTCPASYTRFTTIRKHEQQQTSRQPEWRLDARGDKSTLLRNIYLMSPLPFRLKKPLHHHPRQPSPGDSSGLLVGQKPDLPSQPHQDQPPSGGKPVVPTRLSSRHTMARLSRSSEPSQERPTALEDYPRAINNGNSVPYSDHSLDRNNNPQSELAPSRGDSESPRHFIPADYLESTEEFIRRRHDDKEMRPARAKFDFKAQTLKELPLQKGDIVYIYKQIDQNWYEGEHHGRVGIFPRTYIELLPPAEKAQPKKLTPVQVLEYGEAIAKFNFNGDTQVEMSFRKGERITLLRQVDENWYEGRIPGTSRQGIFPITYVDVIKRPLVKNPVDYMDLPFSSSPSRSATASPQQPQAQQRRVTPDRSQTSQDLFSYQALYSYIPQNDDELELRDGDIVDVMEKCDDGWFVGTSRRTKQFGTFPGNYVKPLYL,soluble
2,MGSDKIHHHHHHMIRLLFASLLAASPIHAQGFAGLGTVADGFAVPAPNPTFSFPDDHGPHPDYRIEWWYLTATLTGADGIDYGIQWTLFRSALAPTTSTDWTAPQIFMGHAGLTTPDAHFSAERLARGGIGQAGVTPVPFRAFIDDWEMTSTTAEGDAYDALSLTARGVDFAYDLALQANGPLIFHGQNGFSVKSAEGQASYYYSQPFYTVTGTLTLPTGAVEVSGNAWLDREWSSQPLSDDQSGWDWFSLQLPDGARLMAFALRDTSDQPFTSATYIAPDGTTQAYGDGAITLTPLVTTDVGGRDVPTEWRLQFPDRGIDITTQPLNPQSWMDTSFPYWEGPITFTGTHDGRGYLEMTGYE,not soluble
3,MNVEQQYIDLFSQTEAMICKHSAEVLNAPRAAAFADFERLGFPTRKMEKYKYTDISKYFEPDYGLNLNRLQIPVNPYEVFKCDVPNMSTALYFVVNDAFYNKALPKTHLPEGVIFGSLKEVAAEHPELVKKYYGKLADTSKDGITAFNTAFAQDGVIFYVPKNVIVEKPIQLVNILRADVNFMVNRRVLIILEDGAQARLLICDHAMDNVNFLATQVIEVFAGENAVFDMYELEETHTSTVRISNLYVKQEANSNVLLNGMTLHNGTTRNTTEVLLAGEGAEINLCGMAIADKNQHVDNNTSIDHAVPNCTSNELFKYVLDDQSTGAFAGLVLVRPDAQHTNSQQTNRNLCATRDARMYTQPQLEIYADDVKCSHGATVGQLDENALFYMRARGIAEKEARLLLMFAFVNEVIDTIRLDALKDRLHLLVEKRFRGELNKCQGCAICK,not soluble
4,MLQDAVEDLGCELWGIECQRVGRFMTVRLFIDKDGGVTVDDCADVSRQVSAILDVEDPIADKYNLEVSSPGLDRPLFTLPQFERYIGQDIAVHLRIPVMERRKWQGKLERIEKDMITLIVDDQEQILVFGNIQKANVVAKF,not soluble
5,MIGLMKGLAYTLKELTREKVTYDYPHEPLPLPDRFRGIQKFYPEKCIVCNQCVNICPTECIQLTGKKHPDPTKKGKVIETYNINFEICILCDLCTEVCPTEAIVMTNNFELAEYSRDALYKDLAWLDENDTNIRRENKP,not soluble
6,AGKTLYDKLWDMHLVKQRDDGSALIYIDRHILHEVTSPQAFEGLRLAGRKPWRIDANIATPDHNVPTTRTERKGGIAAIADEVSRLQVQTLDENCDDFGITEFKMNDVRQGIVHVVGPEQGATLPGMTVVCGDSHTSTHGAFGALAHGIGTSEVEHVLATQCLVAKKMKN,not soluble
7,MTGCSHRFYYSHMIQTSVRSFEVGEDLASMAVDERISLLRSRMQSISKSGDFSLDYNCKTADKNIIPLSDPLSHVLPWGGLPRG,not soluble
8,MTNLNYQQTHFVMSAPDIRHLPSDTGIEVAFAGRSNAGKSSALNTLTNQKSLARTSKTPGRTQLINLFEVADGKRLVDLPGYGYAEVPEEMKRKWQRALGEYLEKRQSLQGLVVLMDIRHPLKDLDQQMIEWAVDSNIAVLVLLTKADKLASGARKAQLNMVREAVLAFNGDVQVETFSSLKKQGVDKLRQKLDTWFSEMQPVEETQDGE,soluble
9,AGADGTSEELADNFVFGFHATVEALQQGRGNKLFLQEDARGEKIEQLKQAAKEQAVPVKWVPKAKLDTMSDHGVHQGMVLAITA,not soluble
10,MQEYSIDITLTHPDDVLALFGSNERHLKLIEAHLGVIVHARTERVQVIGEDEEAVELARLTIKALLVLVGRGMVVNTSDVVTALSMAESHQIDQFMALYEEEIIKDNYGKAIRVKTLGQKTYVDSVKRHDVVFGVGPAGTGKTFLAVTLAVTALKRGQVKRIILTRPAVEAGESLGFLPGDLKEKVDPYLRPVYDALYHILGKEQTTRLMERDVIEIAPLAYMRGRTLDDAFVILDEAQNTTIMQMKMFLTRLGFNSKMIVNGDTSQIDLPRNVKSGLIDATQKLQGIKQIDFVYFSAKDVVRHPVVADIIKAYETSSEEMKDLLKPKASDVEADYQPGLTKYPVIGQEHLEHHHHHH,not soluble
11,MNWEQKSSMLKKKIERIKEIETTLWGNLEKCELCPRKCGVDRYRTTGICGLPARAKISNAVLHFGEEPPISGKTGAGTVFFSGCNMKCVYCQNMGFSQKGIGTEVEVEDLAEIFLILQKHGAKTLNLVTPTPHLPFIISALRIAIENGLNLPIVYNTSGYEDPEILRLLEGVVDIYLSDVRYSDNEASKKYSKTPDYWTVVQKAIVEMFRQVGIFDEEKMKGLIVRILVLPGNVVDYSEIFSFLSSLSTRIPLSIMNQYIPHFDAQKFPEISRKLNQNEYEKILELAERYGFTEGWYQSEEKERVTTRGLKEISEKLQFLRLKTHNSY,not soluble
12,SMNFYSAYQHGFVRVAACTHHTTIGDPAANAASVLDMARACHDDGAALAVFPELTLSGYSIEDVLLQDSLLDAVEDALLDLVTESADLLPVLVVGAPLRHRHRIYNTAVVIHRGAVLGVVPKSYLPTYREFYERRQMAPGDGERGTIRIGGADVAFGTDLLFAASDLPGFVLHVEICEDMFVPMPPSAEAALAGATVLANLSGSPITIGRAEDRRLLARSASARCLAAYVYAAAGEGESTTDLAWDGQTMIWENGALLAESERFPKGVRRSVADVDTELLRSERLRMGTFDDNRRHHRELTESFRRIDFALDPPAGDIGLLREVERFPFVPADPQRLQQDCYEAYNIQVSGLEQRLRALDYPKVVIGVSGGLDSTHALIVATHAMDREGRPRSDILAFALPGFATGEHTKNNAIKLARALGVTFSEIDIGDTARLMLHTIGHPYSVGEKVYDVTFENVQAGLRTDYLFRIANQRGGIVLGTGDLSELALGWSTYGVGDQMSHYNVNAGVPKTLIQHLIRWVISAGEFGEKVGEVLQSVLDTEITPELIPTGEEELQSSEAKVGPFALQDFSLFQVLRYGFRPSKIAFLAWHAWNDAERGNWPPGFPKSERPSYSLAEIRHWLQIFVQRFYSFSQFKRSALPNGPKVSHGGALSPRGDWRAPSDMSARIWLDQIDREVPKG,soluble
13,MKKKMMTVFTIGVMSLSILGGASPSETQKGKTDYTQRSKEQLNNGKIHAVHTEEKAEKLGIETEGKEQITLEKEIHETEVGREAEQLGISIEGKDVGMLSEEIYETKVKQEALKLGISIENTSIVDLITQINAIKIKDEADKLGISTDGKEIEDIAEEIYGKKVREEAGKLDISQKGKEIEELAQEVYEQKVQEEAKKHHIDLYGKDIYQILREINEQKVLQMADELNMDKMNMNIQELAEKIKKDQPEKGKELNFVPMVRTDADAFYSYLTNLEHHHHHH,not soluble
14,MSLNHHPIIYLVDHQKDARAALSKLLSPLDVTIQCFASAESFMRQQISDDAIGMIIEAHLEDKKDSGIELLETLVKRGFHLPTIVMASSSDIPTAVRAMRASAADFIEKPFIEHVLVHDVQQIINGAKEGHHHHHH,soluble
15,MGSDKIHHHHHHMILNIDVNLAYSIEQPVDLILQIQAPSFADQHVVSETFDLGNPEHVGRIAGEAGMGDRVLLSTATDFRFSYTAQIDVNRPALALEQLKAVAPHLLPGDAVRYLMPSRYCQSDELQSFVAAEFGHLSGGARIVAMRDWINQRYQYVPGSSTAQTTAIDTFVQRQGVCRDFAHVLIALARASAIPARFVSVYAPHVTPQDFHAVAEVFLDGTWHLVDATGMADASDIARIGVGMDAAEVAFLSSFGPMTMDTQTVSVSIAGS,not soluble
16,MLFMVKFRWETEFKETDIGKIPKDWDVKKIKDIGEVAGGSTPSTKIKEYWGGDIPWITPKDLANYEYIYISRGERNITEKAVKECSLRIFPKGTILLTSRAPIGYVAIAKNPLTTNQGFRNIIPKDGVVSEYLYYLFKTKTMSEYLKDISGGSTFPELKGSTLKEVEIPYPSPEEQQKIATVLSYFDDLIENKKKQNEILEKIALELFKNWFIDFEPFKNEEFVYNDELDKEIPKGWEVKRLGDILKVESGSNAPQREIYFENAKIPFVRVKHLVKGVCIESSDFINELALKDYKMKLYNEKSIIFQKSGESLKEARVNIVPFKFTAVNHLAVIDSSMLNEKHYFIYCLLRFLLKEIVYSVKGTTLPYLKISDIENKYIIIPPQPILQKFHSLVQPLFEKIINNQKQIMVLKKIRDALLPKLVFGELRVEEL,soluble
17,MKFPKDFMIGYSSSPFQFEAGIPGSEDPNSDWWVWVHDPENTAAGLVSGDFPENGPGYWNLNQNDHDLAEKLGVNTIRVGVEWSRIFPKPTFNVKVPVERDENGSIVHVDVDDKAVERLDELANKEAVNHYVEMYKDWVERGRKLILNLYHWPLPLWLHNPIMVRRMGPDRAPSGWLNEESVVEFAKYAAYIAWKMGELPVMWSTMNEPNVVYEQGYMFVKGGFPPGYLSLEAADKARRNMIQAHARAYDNIKRFSKKPVGLIYAFQWFELLEGPAEVFDKFKSSKLYYFTDIVSKGSSIINVEYRRDLANRLDWLGVNYYSRLVYKIVDDKPIILHGYGFLCTPGGISPAENPCSDFGWEVYPEGLYLLLKELYNRYGVDLIVTENGVSDSRDALRPAYLVSHVYSVWKAANEGIPVKGYLHWSLTDNYEWAQGFRQKFGLVMVDFKTKKRYLRPSALVFREIATHNGIPDELQHLTLIQ,soluble
18,MYYIASADSQQSQQGRSQAEAPEFLTEKCPFVGLKSTLEQVGTPR,not soluble
19,MLLNLQKILKKWVICTLPKPNVTFLAIKFFNLKNEFLFFSKFCKKQPKFEILNVSYCSQNFQKYRIQYLNYFKISTFFSIKKSHIQV,not soluble
